B1: LINE1-full (parent)
chain: UACGUAGGUGGUUUUCCCCUGAUAGUGCUAAGGGGGCCUGGAAGUUUGGACUGGGCAGAGCUCAACACAGCGUGGCAAAGUGGCUGUGGCUAGACUGCCUCUCUGGAUUCCUCGUCACUCAGCAGGGCAUCUCUGAGAGAAAUGCC

Variants of: B1
Test: self-cleavage, relative activity (ratio to wild type); higher = more cleavage; in vitro, sequencing; the parent is a self-cleaving ribozyme

Variant | self-cleavage
G89U A142U | 0.04
G89U U109A | 0.02
C90A U134A | 0.04
C90G A92G | 0.03
C90G A121U | 0.02
C90G A136U | 0.04
C90G U109C | 0.07
C90G U132C | 0.05
C90G U134A | 0.03
C90U A117G | 0.06
C90U A124G | 0.02
C90U A124U | 0.02
C90U A136G | 0.05
C90U A141G | 0.03
C90U G114U | 0.03
C90U U96A | 0.06
C90U U100C | 0
C90U U104C | 0.04
C90U U108A | 0.05
C90U U108C | 0.03
C90U U132A | 0.01
C90U U132C | 0.03
C90U U134C | 0.04
U91A | 0.58

Variant | self-cleavage
U91A A94G | 0.09
U91A A121G | 0.84
U91A A124G | 0.33
U91A A141G | 0.51
U91A C116U | 0.53
U91A U96C | 0.12
U91A U100A | 0.56
U91A U104C | 0.42
U91A U115C | 0.78
U91A U119C | 0.84
U91A U130G | 1.24
U91A U143G | 0.56
U91C | 0.67
U91C A107G | 0.73
U91C A117G | 0.78
U91C A117U | 0.92
U91C A124G | 0.33
U91C A124U | 0
U91C A129G | 0.47
U91C A136U | 0.58
U91C A138U | 0.6
U91C A140G | 0.75
U91C A141G | 0.92
U91C C95A | 0.08

Variant | self-cleavage
U91C C98U | 0.19
U91C C99A | 0.11
U91C C110U | 0.66
U91C C123U | 0.8
U91C C128U | 1
U91C C133A | 0.74
U91C G106A | 0.95
U91C G114A | 0.57
U91C G127A | 0.53
U91C U96C | 0.13
U91C U100A | 0.15
U91C U108A | 0.55
U91C U109A | 0.48
U91C U112C | 0.59
U91C U115A | 0.56
U91C U115C | 0.83
U91C U115G | 0.69
U91C U119C | 1.4
U91C U130C | 0.77
U91C U134A | 0.57
U91C U134C | 0.87
U91G | 0.04
U91G A94G | 0
U91G A129U | 0.05

Variant | self-cleavage
U91G A138G | 0
U91G A140G | 0.02
U91G C111U | 0.02
U91G U108C | 0
A92C A124G | 0
A92C A129G | 0
A92C A141G | 0.26
A92C C128U | 0.31
A92C G93U | 0.06
A92C U109C | 0
A92C U132C | 0
A92G A94G | 0.12
A92G A107G | 0.17
A92G A117G | 0
A92G A117U | 0.08
A92G A121G | 0.11
A92G A121U | 0.09
A92G A124U | 0.09
A92G A129G | 0
A92G A136G | 0.08
A92G A136U | 0.05
A92G A138G | 0.08
A92G A142G | 0.14
A92G C98A | 0.08

Variant | self-cleavage
A92G C120U | 0.07
A92G C131G | 0.22
A92G G126A | 0.13
A92G G144A | 0.09
A92G U96A | 0.13
A92G U100C | 0.14
A92G U102C | 0.11
A92G U104C | 0.05
A92G U108C | 1.11
A92G U112A | 0.09
A92G U112C | 0.13
A92G U115A | 0.12
A92G U132A | 0.05
A92G U134A | 0
A92G U143C | 0.36
A92U A94U | 0.32
A92U A107G | 0.94
A92U A124G | 0.5
A92U A136G | 0.94
A92U A138G | 0.75
A92U A138U | 0.53
A92U A140G | 0.53
A92U A142G | 0.66
A92U C128U | 0.47

Variant | self-cleavage
A92U C146G | 0.41
A92U G105A | 0.77
A92U G106U | 0.62
A92U G114U | 0.67
A92U G127A | 0.39
A92U G139A | 0.76
A92U U100C | 0.9
A92U U102A | 0.79
A92U U102C | 0.3
A92U U104C | 0.96
A92U U108C | 1.2
A92U U112C | 0.48
A92U U119A | 0.72
A92U U130C | 0.73
A92U U130G | 1.61
A92U U143A | 0.6
A92U U143C | 0.99
G93A A94G | 0.09
G93A A107G | 0.06
G93A A121U | 0.06
G93A A138G | 0.06
G93A A141U | 0.04
G93A C101A | 0.04
G93A G105U | 0.02

Variant | self-cleavage
G93A U115C | 0.04
G93A U119A | 0.03
G93A U119C | 0.04
G93U A141G | 0.03
G93U A141U | 0.02
G93U A142U | 0.04
G93U U96C | 0.06
G93U U102A | 0.02
G93U U108C | 0.05
A94C | 0.06
A94C A124G | 0.02
A94C A124U | 0
A94C A129G | 0
A94C A136G | 0.07
A94C A140G | 0.04
A94C U115A | 0.1
A94C U119C | 0.1
A94C U130C | 0.09
A94C U134C | 0.09
A94G | 0.31
A94G A107U | 0.3
A94G A117C | 0.26
A94G A117G | 0.36
A94G A124G | 0.06

Variant | self-cleavage
A94G A129G | 0.11
A94G A136G | 0.34
A94G A138C | 0.22
A94G A138U | 0.36
A94G A140U | 0.33
A94G A141G | 0.25
A94G C95A | 0.07
A94G C99U | 0.19
A94G C116U | 0.28
A94G C128U | 0.22
A94G C145U | 0.17
A94G C146U | 0.47
A94G G114A | 0.23
A94G G125C | 0.57
A94G G127U | 0.09
A94G U100A | 0.21
A94G U100C | 0.44
A94G U102A | 0.27
A94G U104A | 0.22
A94G U109A | 0.39
A94G U109C | 0.07
A94G U112C | 0.13
A94G U115A | 0.34
A94G U115C | 0.45

Variant | self-cleavage
A94G U130A | 0.34
A94G U130C | 0.36
A94G U132C | 0.34
A94G U134A | 0.21
A94G U134C | 0.44
A94G U143C | 0.43
A94U | 0.29
A94U A107U | 0.32
A94U A136U | 0.29
A94U A138G | 0.32
A94U A140U | 0.26
A94U A141G | 0.37
A94U A141U | 0.42
A94U C101U | 0.31
A94U C116U | 0.33
A94U C120G | 0.3
A94U C131U | 0.29
A94U G144A | 0.4
A94U U100C | 0.33
A94U U102A | 0.33
A94U U104A | 0.19
A94U U104C | 0.55
A94U U109C | 0.22
A94U U112A | 0.31

Variant | self-cleavage
A94U U112C | 0.37
A94U U115A | 0.31
A94U U115C | 0.45
A94U U119C | 0.28
A94U U130A | 0.23
A94U U132C | 0.52
A94U U134A | 0.25
A94U U134C | 0.32
A94U U134G | 0.2
A94U U143A | 0.21
A94U U143C | 0.24
C95A A121U | 0.05
C95A A129G | 0.09
C95A A136U | 0.05
C95A A138G | 0.09
C95A A142G | 0.08
C95A C146U | 0.08
C95A U102C | 0.11
C95A U104C | 0.08
C95A U108C | 0
C95A U115C | 0.11
C95G U104C | 0.02
C95U A107G | 0.21
C95U A117G | 0.14

Variant | self-cleavage
C95U A121G | 0.33
C95U A129G | 0.19
C95U A138U | 0.2
C95U C118A | 0.13
C95U G135A | 0.17
C95U U100C | 0.59
C95U U102C | 0.14
C95U U104A | 0.1
C95U U108C | 0.42
C95U U115C | 0.54
C95U U130C | 0.21
C95U U132C | 0.21
U96A A121U | 0.05
U96A A124G | 0.06
U96A A136G | 0.09
U96A A136U | 0.09
U96A A138U | 0.1
U96A A140G | 0.06
U96A A140U | 0
U96A C110U | 0.08
U96A C113U | 0.06
U96A C116A | 0.21
U96A C118A | 0.02
U96A C128U | 0.07

Variant | self-cleavage
U96A G97A | 0.09
U96A G122C | 0.07
U96A G126A | 0.07
U96A G127A | 0.06
U96A G135A | 0.03
U96A G137A | 0.12
U96A G139C | 0.04
U96A U100C | 0.08
U96A U104A | 0.07
U96A U104C | 0.07
U96A U108C | 0.08
U96A U109A | 0.05
U96A U112A | 0.06
U96A U115A | 0.08
U96A U115C | 0.05
U96A U119A | 0.09
U96A U119C | 0.11
U96A U130A | 0.05
U96A U130C | 0.06
U96A U132C | 0.12
U96A U134A | 0.08
U96C A107G | 0.14
U96C A117G | 0.2
U96C A117U | 0.1

Variant | self-cleavage
U96C A121U | 0.13
U96C A124U | 0.14
U96C A129G | 0.11
U96C A129U | 0.1
U96C A136C | 0
U96C A136G | 0.15
U96C A136U | 0.15
U96C A138U | 0.1
U96C A140U | 0.14
U96C A141G | 0.18
U96C A142G | 0.13
U96C A142U | 0.12
U96C C111U | 0.12
U96C C113A | 0.05
U96C C113G | 0.11
U96C C113U | 0.05
U96C C146A | 0.25
U96C C146U | 0.15
U96C G126A | 0.15
U96C G135A | 0.24
U96C G137U | 0.06
U96C U100A | 0.08
U96C U100C | 0.38
U96C U104C | 0.13

Variant | self-cleavage
U96C U108A | 0.09
U96C U115A | 0.13
U96C U115C | 0.32
U96C U115G | 0.21
U96C U119G | 0.13
U96C U130C | 0.24
U96C U132A | 0.11
U96C U132C | 0.11
U96C U134G | 0.11
U96C U143C | 0.14
U96G A117C | 0
U96G A136G | 0.13
U96G A141G | 0
U96G A142G | 0.17
U96G G137A | 0.08
U96G U104A | 0.05
U96G U108C | 0.13
U96G U108G | 0.16
U96G U109A | 0
U96G U132C | 0.16
G97A | 0.11
G97A A121G | 0.05

From the RNAGym collection of RNA variant scans (doi:10.7554/elife.90254)
